Tests used:
Test in all cases: EMSA
NFI-X193 R121P = NFI-X193 R121P (mouse, UniProt P70257 14-193, R121P)
NFI-X193 K125E = NFI-X193 K125E (mouse, UniProt P70257 14-193, K125E)
NFI-X193 R115W = NFI-X193 R115W (mouse, UniProt P70257 14-193, R115W)
NFI-X193 R116Q = NFI-X193 R116Q (mouse, UniProt P70257 14-193, R116Q)
NFI-X193 K113E = NFI-X193 K113E (mouse, UniProt P70257 14-193, K113E)
NFI-X193 R116P = NFI-X193 R116P (mouse, UniProt P70257 14-193, R116P)
NFI-X193 (NFI-X DBD) = NFI-X193 (NFI-X DBD) (mouse, UniProt P70257 14-193)

B1: NFI-31bp Cy5 probe (dsDNA)
DNA 1: GGGTCTCTTTGGCAGGCAGCCAACCAGCAAA
DNA 2: TTTGCTGGTTGGCTGCCTGCCAAAGAGACCC
B1: binds (NFI-X193 R121P); no binding (NFI-X193 K125E); no binding (NFI-X193 R115W). B1: no binding (NFI-X193 R116Q); no binding (NFI-X193 K113E); no binding (NFI-X193 R116P). For the same binder, the Kd (NFI-X193 (NFI-X DBD)) was 48.1 ± 0.49 nM.

Reference: PMC12630593
